Source: EP3816180A1 (Max-Planck-Gesellschaft zur Förderung der Wissenschaften …, dated 2021)

Biological target: T1, cpHaloΔ9mer
T1 construct: Large fragment of split, circularly permuted HaloTag7; Made in E. coli; also called cpHalo_9mer; cpHalo156-141
Experiment: ITC; 9mer peptide (30 mM) titrated into cpHaloΔ9mer (0.6 mM), HEPES 50 mM pH 7.3, NaCl 50 mM; three independent measurements

T1 sequence (chain, as listed by the source mutant): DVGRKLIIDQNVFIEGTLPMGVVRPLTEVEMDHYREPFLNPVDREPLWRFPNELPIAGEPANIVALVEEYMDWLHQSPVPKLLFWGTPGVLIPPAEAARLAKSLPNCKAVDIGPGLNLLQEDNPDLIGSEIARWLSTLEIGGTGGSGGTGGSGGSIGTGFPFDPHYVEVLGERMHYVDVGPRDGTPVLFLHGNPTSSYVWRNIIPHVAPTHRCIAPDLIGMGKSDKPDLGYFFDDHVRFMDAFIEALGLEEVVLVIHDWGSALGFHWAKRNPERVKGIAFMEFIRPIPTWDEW

- Kd: 5.3 mM
B1: 9mer peptide (peptide)
peptide: ARETFQAFR
notes: Free peptide titrated in ITC; also called PEP1
